Data published in US20120121591A1 (priority 2009, published 2012).
Where two headings read alike, the source gives them in different places. No end group written: not given here.

Assays:
[1] = tested on: IL-2 secretion from T cells in human whole blood; format: cell-based
[2] = tested on: IFN-g secretion from T cells in human whole blood; format: cell-based
hKv1.3 [3] = target: T1, hKv1.3 (Homo sapiens, UniProt P22001); assay: cell-based; format: cell-based
hKv1.3 [4] = target: T1, hKv1.3; assay: cell-based
[5] = format: in vivo, rat; conditions: Sprague-Dawley rats
Excerpt: Single subcutaneous doses were delivered to animals and serum was collected at various time points after injection. Studies in rats, dogs (beagles), and cynomolgus monkeys involved two to three animals per dose group, with blood and serum collection occurring at various time points over the course of the study. Male Sprague-Dawley (SD) rats (about 0.3 kg), male beagles (about 10 kg) and male cynomolgus monkeys (about 4 kg) were used in the studies described herein (n=3 animals per dose group). Approximately 5 male CD-1 mice were used per dose and time point in our mouse pharmacokinetic studies. Serum samples were stored frozen at −80° C., until analysis in an enzyme-linked immunosorbent assay (ELISA).
Single subcutaneous doses were delivered to animals and serum was collected at various time points after injection. Three animals were used per dose group, with blood and serum collection occurring at various time points over the course of the study. Serum samples were stored frozen at −80° C., until analysis in an enzyme-linked immunosorbent assay (ELISA). […] A brief description of these ELISA protocols is provided: […]

human Kv1.3 [6] = target: T2, human Kv1.3 (Homo sapiens, UniProt P22001); format: cell-based; conditions: for IC50: read-out: Kv1.3 IC50, whole cell patch clamp
T2 sequence (P22001 whole entry): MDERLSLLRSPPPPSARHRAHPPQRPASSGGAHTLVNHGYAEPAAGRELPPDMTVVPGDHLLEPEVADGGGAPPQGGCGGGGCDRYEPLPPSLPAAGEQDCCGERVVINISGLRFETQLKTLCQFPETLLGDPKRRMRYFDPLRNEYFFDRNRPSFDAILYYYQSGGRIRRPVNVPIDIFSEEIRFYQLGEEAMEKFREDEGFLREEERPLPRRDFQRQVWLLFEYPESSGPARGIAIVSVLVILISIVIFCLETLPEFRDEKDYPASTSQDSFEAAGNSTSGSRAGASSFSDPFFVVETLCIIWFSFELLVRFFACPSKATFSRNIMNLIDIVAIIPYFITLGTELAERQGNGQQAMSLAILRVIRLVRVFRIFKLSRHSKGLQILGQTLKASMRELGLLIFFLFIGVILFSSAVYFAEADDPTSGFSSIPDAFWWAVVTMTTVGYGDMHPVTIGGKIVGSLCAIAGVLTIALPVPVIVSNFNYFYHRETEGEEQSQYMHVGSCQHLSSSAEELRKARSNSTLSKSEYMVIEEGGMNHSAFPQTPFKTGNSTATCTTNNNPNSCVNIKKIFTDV

[7] = tested on: human CD34-derived mast cells
[8] = format: in vivo, rat; conditions: male SD rats, single SC dose
Description: Hypoactivity and lateral recumbence were also observed at 0.4 mg/kg. […] The severity of swelling was not dose dependent, and all clinical observations noted in all groups that survived to their scheduled euthanasia resolved by approximately 24 hours postdose. […] Other changes noted at lower doses were limited to decreased lymphocytes and triglycerides at 0.4 mg/kg.
All clinical signs were resolved by day 11. […] Hematologic effects in animals given ≧0.5 mg/kg/day were consistent with increased red cell turnover, and correlated with increased spleen weights, and increased splenic hemopoiesis.
Exposures increased with increasing dose up to 2.5 mg/kg, but exposures were similar in rats given 2.5 and 5.0 mg/kg. […] There was a decrease in body weight and body weight gain noted in the 2.5 and 5.0 mg/kg/dose groups. […] Urine chemistry values were increased in a few animals/group at 0.5 or 2.0 mg/kg/day, but these changes were inconsistent among and within animals, and considered unlikely to be related to treatment. There were no test article-related effects on biomarkers of renal injury (beta-2 microglobulin, calbindin, clusterin, cystatin C, glutathione S-transferase alpha, kidney injury molecule-1, neutrophil gelatinase-associated lipocalin, osteopontin, tissue inhibitor of metalloproteinase-1, and vascular endothelial growth factor). […]

human Kv1.1 [9] = target: T3, human Kv1.1 (Homo sapiens, UniProt Q09470); format: cell-based; conditions: read-out: Kv1.1 IC50, whole cell patch clamp
T3 sequence (Q09470 whole entry): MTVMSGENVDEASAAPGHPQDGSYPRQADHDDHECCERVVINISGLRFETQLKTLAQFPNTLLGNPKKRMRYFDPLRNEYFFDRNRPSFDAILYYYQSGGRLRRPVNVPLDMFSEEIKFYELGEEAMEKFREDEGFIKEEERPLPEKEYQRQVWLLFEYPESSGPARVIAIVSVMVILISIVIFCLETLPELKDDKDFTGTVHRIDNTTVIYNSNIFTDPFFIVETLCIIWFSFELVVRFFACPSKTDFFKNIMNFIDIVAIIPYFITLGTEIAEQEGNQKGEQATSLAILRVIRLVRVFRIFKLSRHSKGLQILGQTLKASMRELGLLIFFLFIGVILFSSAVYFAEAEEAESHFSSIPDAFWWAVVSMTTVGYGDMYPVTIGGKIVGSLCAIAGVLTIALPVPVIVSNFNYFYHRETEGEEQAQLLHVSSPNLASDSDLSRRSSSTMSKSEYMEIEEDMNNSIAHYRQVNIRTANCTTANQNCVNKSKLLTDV

[10] = target: Glycine (Strychnine insensitive) (Cerep target) (human); assay: Cerep safety pharmacology binding assay
[11] = target: NMDA (Cerep target) (human); assay: Cerep safety pharmacology binding assay
[12] = target: Glycine (Strychnine insensitive) (Cerep target) (human)
[13] = target: NMDA (Cerep target) (human)
hKv4.3 (Ito) (human) = hKv4.3 (Ito) (human) (UniProt Q9UK17); assay: cell-based or functional assay
Chain of hKv4.3 (Ito) (human) (Q9UK17 whole entry): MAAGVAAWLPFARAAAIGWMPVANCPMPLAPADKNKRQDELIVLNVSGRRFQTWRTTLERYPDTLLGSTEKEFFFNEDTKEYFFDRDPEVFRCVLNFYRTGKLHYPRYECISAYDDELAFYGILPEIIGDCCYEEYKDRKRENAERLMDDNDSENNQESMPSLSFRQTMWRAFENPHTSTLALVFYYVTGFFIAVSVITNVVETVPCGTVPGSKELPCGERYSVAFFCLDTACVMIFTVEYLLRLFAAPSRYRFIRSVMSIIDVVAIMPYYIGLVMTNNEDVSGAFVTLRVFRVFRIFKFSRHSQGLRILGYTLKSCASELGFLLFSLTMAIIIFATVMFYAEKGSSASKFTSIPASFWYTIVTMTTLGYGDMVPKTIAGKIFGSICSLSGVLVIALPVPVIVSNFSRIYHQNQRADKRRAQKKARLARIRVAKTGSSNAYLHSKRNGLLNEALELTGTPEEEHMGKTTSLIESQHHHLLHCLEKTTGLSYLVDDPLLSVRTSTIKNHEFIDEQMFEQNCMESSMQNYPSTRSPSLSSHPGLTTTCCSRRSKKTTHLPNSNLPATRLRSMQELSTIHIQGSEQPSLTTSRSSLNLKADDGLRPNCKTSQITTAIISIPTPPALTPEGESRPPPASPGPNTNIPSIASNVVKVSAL

hCav1.2 (ICa) (human) = hCav1.2 (ICa) (human) (UniProt Q13936); assay: cell-based or functional assay
hKv1.5 = hKv1.5 (Homo sapiens, UniProt P22460); assay: cell-based or functional assay
Chain of hKv1.5 (P22460 whole entry): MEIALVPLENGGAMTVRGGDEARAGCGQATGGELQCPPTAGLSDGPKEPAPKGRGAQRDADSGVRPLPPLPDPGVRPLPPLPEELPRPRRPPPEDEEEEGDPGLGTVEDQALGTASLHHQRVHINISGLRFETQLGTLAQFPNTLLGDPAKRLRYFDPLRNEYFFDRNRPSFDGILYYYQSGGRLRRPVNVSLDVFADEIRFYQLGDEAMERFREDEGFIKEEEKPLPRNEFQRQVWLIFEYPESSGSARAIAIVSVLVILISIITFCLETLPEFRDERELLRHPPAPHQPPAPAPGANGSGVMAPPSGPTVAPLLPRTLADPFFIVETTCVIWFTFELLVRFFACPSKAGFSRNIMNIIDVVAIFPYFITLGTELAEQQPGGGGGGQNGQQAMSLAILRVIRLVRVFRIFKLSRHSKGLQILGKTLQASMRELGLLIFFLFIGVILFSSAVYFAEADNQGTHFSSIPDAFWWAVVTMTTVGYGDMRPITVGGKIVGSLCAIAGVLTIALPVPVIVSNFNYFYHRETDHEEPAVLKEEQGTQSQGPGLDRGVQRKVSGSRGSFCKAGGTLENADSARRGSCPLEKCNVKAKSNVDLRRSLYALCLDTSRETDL

hKv1.7 = hKv1.7 (Homo sapiens, UniProt Q96RP8); assay: cell-based or functional assay
BKCa (human) = BKCa (human) (UniProt Q12791); assay: cell-based or functional assay
hKv1.4 = hKv1.4 (Homo sapiens, UniProt P22459); assay: cell-based or functional assay
hNav1.5 (INa) (human) = hNav1.5 (INa) (human) (UniProt Q14524); assay: cell-based or functional assay
Chain of hNav1.5 (INa) (human) (Q14524 whole entry): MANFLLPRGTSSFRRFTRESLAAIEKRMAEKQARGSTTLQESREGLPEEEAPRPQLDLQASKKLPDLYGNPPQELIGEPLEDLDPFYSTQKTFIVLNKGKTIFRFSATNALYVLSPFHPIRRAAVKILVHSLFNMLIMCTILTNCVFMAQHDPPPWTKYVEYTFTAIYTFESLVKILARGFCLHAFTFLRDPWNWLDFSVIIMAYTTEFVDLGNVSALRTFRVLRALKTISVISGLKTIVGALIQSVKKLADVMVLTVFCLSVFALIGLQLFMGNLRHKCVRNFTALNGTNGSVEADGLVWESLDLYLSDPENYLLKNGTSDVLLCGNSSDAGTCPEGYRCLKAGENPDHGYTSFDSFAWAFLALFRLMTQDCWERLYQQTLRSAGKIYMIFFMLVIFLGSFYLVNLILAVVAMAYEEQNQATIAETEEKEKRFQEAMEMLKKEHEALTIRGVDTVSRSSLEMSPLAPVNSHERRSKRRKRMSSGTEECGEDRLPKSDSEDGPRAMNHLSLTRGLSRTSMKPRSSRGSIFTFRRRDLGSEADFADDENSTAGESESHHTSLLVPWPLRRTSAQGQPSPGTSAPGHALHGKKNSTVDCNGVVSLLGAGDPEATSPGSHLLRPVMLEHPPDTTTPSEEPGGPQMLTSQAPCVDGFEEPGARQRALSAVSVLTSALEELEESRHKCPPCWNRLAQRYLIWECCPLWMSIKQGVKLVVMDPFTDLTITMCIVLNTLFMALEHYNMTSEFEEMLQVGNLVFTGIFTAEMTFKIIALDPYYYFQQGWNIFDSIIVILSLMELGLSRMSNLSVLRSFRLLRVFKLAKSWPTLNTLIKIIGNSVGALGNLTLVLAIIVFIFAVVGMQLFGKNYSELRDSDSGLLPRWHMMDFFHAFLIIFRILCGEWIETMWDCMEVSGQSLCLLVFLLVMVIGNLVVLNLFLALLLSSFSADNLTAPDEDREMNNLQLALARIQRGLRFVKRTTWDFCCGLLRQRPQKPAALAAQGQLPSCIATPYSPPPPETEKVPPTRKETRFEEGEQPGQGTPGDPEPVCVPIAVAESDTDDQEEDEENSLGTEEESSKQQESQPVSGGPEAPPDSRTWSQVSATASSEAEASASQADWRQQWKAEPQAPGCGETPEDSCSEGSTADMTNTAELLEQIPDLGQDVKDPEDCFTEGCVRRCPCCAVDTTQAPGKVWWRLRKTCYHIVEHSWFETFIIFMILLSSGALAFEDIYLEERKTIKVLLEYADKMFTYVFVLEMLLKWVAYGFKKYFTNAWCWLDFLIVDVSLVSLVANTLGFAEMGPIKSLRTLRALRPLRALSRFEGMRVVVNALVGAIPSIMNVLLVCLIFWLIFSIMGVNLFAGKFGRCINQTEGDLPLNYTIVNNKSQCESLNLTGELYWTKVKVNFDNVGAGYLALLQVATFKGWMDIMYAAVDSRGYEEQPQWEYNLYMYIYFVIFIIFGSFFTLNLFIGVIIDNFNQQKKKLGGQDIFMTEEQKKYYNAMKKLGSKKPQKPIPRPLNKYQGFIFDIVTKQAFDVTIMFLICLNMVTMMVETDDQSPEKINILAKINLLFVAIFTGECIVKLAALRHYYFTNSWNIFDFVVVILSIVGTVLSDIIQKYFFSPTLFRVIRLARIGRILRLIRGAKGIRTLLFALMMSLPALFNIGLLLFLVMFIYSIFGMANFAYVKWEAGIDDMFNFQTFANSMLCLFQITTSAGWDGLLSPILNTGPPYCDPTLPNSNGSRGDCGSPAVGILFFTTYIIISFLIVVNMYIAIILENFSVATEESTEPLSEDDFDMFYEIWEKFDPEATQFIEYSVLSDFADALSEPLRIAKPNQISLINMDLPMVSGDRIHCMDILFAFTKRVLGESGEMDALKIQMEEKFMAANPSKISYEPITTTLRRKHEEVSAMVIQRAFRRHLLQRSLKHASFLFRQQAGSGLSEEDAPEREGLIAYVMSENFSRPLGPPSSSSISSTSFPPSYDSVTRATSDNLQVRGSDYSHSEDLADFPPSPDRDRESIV

hKv1.2 = hKv1.2 (Homo sapiens, UniProt P16389); assay: cell-based or functional assay
Chain of hKv1.2 (P16389 whole entry): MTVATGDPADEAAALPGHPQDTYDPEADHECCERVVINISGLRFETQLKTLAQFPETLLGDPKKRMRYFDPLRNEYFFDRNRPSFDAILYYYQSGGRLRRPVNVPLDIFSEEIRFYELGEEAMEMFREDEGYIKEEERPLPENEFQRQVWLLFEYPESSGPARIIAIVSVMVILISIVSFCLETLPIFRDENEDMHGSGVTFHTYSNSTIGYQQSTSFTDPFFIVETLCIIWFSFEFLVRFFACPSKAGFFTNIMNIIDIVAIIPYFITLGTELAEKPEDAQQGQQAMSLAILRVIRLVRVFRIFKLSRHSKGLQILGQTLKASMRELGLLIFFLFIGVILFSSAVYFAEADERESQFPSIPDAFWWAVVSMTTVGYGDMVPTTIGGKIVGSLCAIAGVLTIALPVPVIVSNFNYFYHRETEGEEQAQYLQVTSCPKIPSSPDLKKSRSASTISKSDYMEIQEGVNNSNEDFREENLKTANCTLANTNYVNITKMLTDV

hERG (IKr) (human) = hERG (IKr) (human) (UniProt Q12809); assay: cell-based or functional assay
human Kv1.3 [14] = target: T2, human Kv1.3; assay: cell-based or functional assay
[15] = target: cynomolgus monkey T cell Kv1.3 (cynomolgus monkey); assay: cell-based or functional assay
hKv1.6 = hKv1.6 (Homo sapiens, UniProt P17658); assay: cell-based or functional assay
human Kv1.1 [16] = target: T3, human Kv1.1; assay: cell-based or functional assay
[17] = read-out: WB (IL-2) IC50 (nM, Avg)
[18] = read-out: WB (IFNg) IC50 (nM, Avg)

T1 sequence (P22001 whole entry): as the sequence (P22001 whole entry) above

For `CC[C@H](C)[C@@H]1NC(=O)[C@@H](NC(=O)[C@H](CO)NC(=O)[C@@H](N)CCCNC(=N)N)CSSC[C@@H](C(=O)N[C@@H](C)C(=O)O)NC(=O)[C@H]([C@@H](C)O)NC(=O)CNC(=O)[C@@H]2CSSC[C@@H]3NC(=O)[C@H](CCCCN)NC(=O)[C@H](Cc4ccccc4)NC(=O)[C@H](C)NC(=O)[C@H]([C@@H](C)O)NC(=O)[C@H](CSSC[C@H](NC(=O)[C@H](Cc4ccccc4)NC(=O)[C@H](CO)NC(=O)[C@H](CC(C)C)NC(=O)[C@H](CCCNC(=N)N)NC(=O)[C@H](Cc4ccc(O)cc4)NC(=O)[C@H](CCCCN)NC(=O)[C@H](CCSC)NC(=O)[C@H](CO)NC(=O)[C@H](Cc4c[nH]cn4)NC(=O)[C@H](CCCCN)NC3=O)C(=O)N[C@@H](CCCNC(=N)N)C(=O)N[C@@H](CCCCN)C(=O)N[C@@H]([C@@H](C)O)C(=O)N2)NC(=O)[C@H](CCCNC(=N)N)NC(=O)[C@H](CO)NC(=O)[C@H](CCCCN)NC(=O)[C@@H]2CCCN2C(=O)[C@H]([C@@H](C)CC)NC(=O)[C@H]([C@@H](C)O)NC(=O)[C@H](CC(=O)O)NC1=O` [[Lys16]ShK-Ala], the IC50 ([1]; read-out: IC50 blocking IL-2 secretion from human whole blood) was 0.138 nM, the IC50 ([1]; read-out: WB (IL-2) IC50) was 0.138 nM and the IC50 [1, 17] was 0.138 nM. The IC50 ([2]; read-out: WB (IFNg) IC50) was 0.266 nM, the IC50 [2, 18] was 0.266 nM and the IC50 (hKv1.3 [3]; Kv1.3 (IWQ) IC50 (nM, Avg)) was 9.5 nM. It also gave an IC50 (hKv1.3 [4]) of 0.06 nM.

Molecule “20 kDa-PEG-ShK: ShK conjugated with an N-terminal 20 kDa PEG moiety” has an IC50 ([1]; read-out: WB (IL-2) IC50) of 0.38 nM, an IC50 [1, 17] of 0.387 nM and an IC50 ([2]; read-out: WB (IFNg) IC50) of 0.84 nM. The IC50 [2, 18] was 0.855 nM, the AUC0-inf ([5]; SC 0.3 mg/kg) was 6,020 ng · hr · mL^−1 and the AUC0-t ([5]; SC 0.3 mg/kg) was 6011 ng·h/mL. The Cmax ([5]; SC 0.3 mg/kg) was 165 ng/mL, the “DNAUC (0-inf)” value ([5]; SC 0.3 mg/kg) was 20065 and the MRT ([5]; SC 0.3 mg/kg) was 27 h. The Tmax ([5]; SC 0.3 mg/kg) was 24 h, the AUC0-inf ([5]; SC 2 mg/kg) was 42374 ± 10,237 ng · hr · mL^−1 and the AUC0-t ([5]; SC 2 mg/kg) was 42347 ± 10,228 ng · hr · mL^−1. The Cmax ([5]; SC 2 mg/kg) was 1138 ± 404 ng/mL, the “DNAUC (0-inf)” value ([5]; SC 2 mg/kg) was 21187 and the MRT ([5]; SC 2 mg/kg) was 37 ± 3 h. It also gave a Tmax ([5]; SC 2 mg/kg) of 24 ± 0 h, an IC50 (hKv1.3 [3]; read-out: Kv1.3 (IWQ) IC50 (nM, Avg)) of 1.21 nM and an IC50 (human Kv1.3 [6]) of 0.299 nM.

For “substance P: basic secretagogue, positive control”, the “Degranulation / histamine release of human CD34-derived mast cells” value [7] was “highly active”.

For “PEG-[1-Nal 16]ShK: PEG conjugate of the 1-Nal16 analog of ShK, relatively Kv1.3-inactive (RSCIDTIPKSRCTAFXCKHSMKYRLSFCRKTCGTC; PEG; ShK PEGylated toxin peptide analog; PEGylated; 3-(1-naphthyl)alanine)”, the “Molar AUC exposure compared with PEG-[Lys16]ShK and anti-KLH Ab-[Lys16]ShK” value [8] was 6-8 × and the “Times less activity of the PEG conjugate than of the free peptide (Kv1.3)” value (hKv1.3 [3]) was “about 57 times”.

With “MCDP: basic secretagogue, positive control (IKCNCKRHVIKPHICRKICGKN; ends and bridges not checked; cysteine pairing not given here; UniProt P01499 28-49, looked up)” the “Degranulation / histamine release of human CD34-derived mast cells” value [7] was “highly active”.

For “Bivalent Fc-L10-ShK[2-35] homodimer: bivalent IgG1 Fc-L10-ShK[2-35] peptibody, Example 2 of WO2008/088422A2 (Fc-GGGGSGGGGSSCIDTIPKSRCTAFQCKHSMKYRLSFCRKTCGTC; ends and bridges not checked; also: homodimer via IgG1 Fc)”, the IC50 (human Kv1.1 [9]) was 0.411 nM, the “Potency Relative to ShK (WB, IL2)” value [1] was 8.73 and the IC50 ([1]; read-out: WB (IL-2) IC50) was 0.585 nM. For the same molecule, the IC50 ([2]; read-out: WB (IFNg) IC50) was 2.29 nM, the “Kv1.1/Kv1.3 Selectivity Ratio” value (human Kv1.3 [6]) was 3.54 and the IC50 (human Kv1.3 [6]) was 0.116 nM.

20 kDa PEG-[Lys16]ShK (peptide) gave an IC50 [10] of 1700 nM, an IC50 [11] of 10000 nM and a % Inhibition [12] of 101%. The % Inhibition [13] was 71%, the Kv4.3 (Ito) IC50 (hKv4.3 (Ito) (human)) was greater than 30000 nM and the Cav1.2 (ICa) IC50 (hCav1.2 (ICa) (human)) was greater than 30000 nM. For the same molecule, the Kv1.5 IC50 (hKv1.5) was greater than 30000 nM, the Kv1.7 IC50 (hKv1.7) was greater than 10000 nM and the BKCa IC50 (BKCa (human)) was greater than 10000 nM. For the same molecule, the Kv1.4 IC50 (hKv1.4) was greater than 10000 nM, the Nav1.5 (INa) IC50 (hNav1.5 (INa) (human)) was greater than 30000 nM and the Kv1.2 IC50 (hKv1.2) was 639 nM. For the same molecule, the hERG (IKr) IC50 (hERG (IKr) (human)) was greater than 10000 nM, the IFNγ production in human whole blood IC50 (human Kv1.3 [14]) was 0.24 nM and the IL-2 production in human whole blood IC50 (human Kv1.3 [14]) was 0.109 nM. For the same molecule, the Kv1.3 (IWQ) IC50 (human Kv1.3 [14]) was 0.665 nM, the WB (IFNg) IC50 (human Kv1.3 [14]) was 0.215 nM and the WB (IL-2) IC50 (human Kv1.3 [14]) was 0.104 nM. For the same molecule, the whole blood IL-2 secretion IC95 (human Kv1.3 [14]) was 1.01 nM, the cyno whole blood PD assay, IL-4 response IC50 [15] was 0.17 nM and the cyno whole blood PD assay, IL-17 response IC50 [15] was 0.09 nM. The Kv1.6 IC50 (hKv1.6) was 466 nM and the Kv1.1 (IWQ) IC50 (human Kv1.1 [16]) was 1080 nM.

Molecule “Bivalent Fc-L10-ShK[1-35] homodimer: bivalent IgG1 Fc-L10-ShK[1-35] peptibody, Example 1 of WO2008/088422A2 (GGGGSGGGGSRSCIDTIPKSRCTAFQCKHSMKYRLSFCRKTCGTC; not fully specified (N-terminus); ends and bridges not checked; also: homodimer (bivalent Fc peptibody))” has an IC50 (human Kv1.1 [9]) of 0.067 nM, an IC50 ([1]; read-out: WB (IL-2) IC50) of 0.386 nM and an IC50 ([2]; read-out: WB (IFNg) IC50) of 0.32 nM.
